PMC11591356, “Immunomodulatory Effects of the Tobacco Defensin NaD1” (Antibiotics, 2024)
pIC50: −log10 of the molar value. Read-outs that look alike come from different tables or passages of the source. Ends that are not written are not given here.

How the values were obtained:
[1] = tested on: umbilical vein endothelial cells (HUVEC); parameters: method as in PMID 28179997; conditions: read-out: IC50, MTT cell viability assay; cited from earlier work
[2] = tested on: Caco-2 cells not in a monolayer; conditions: 24 h, resazurin
Protocol: (§1) The cytotoxic effects of the tobacco defensin NaD1 towards PBMCs or Caco-2 cells were investigated in 96-well plates using the resazurin method as previously described. In brief, 4 × 10^5 per well Caco-2 cells not in a monolayer as well as Caco-2 cells in a monolayer in DMEM/F12 (1:1) medium with 10% FBS or 2 × 10^6 PBMCs per well in RPMI-1640 also with 10% FBS were incubated with serial dilutions of NaD1 at final concentrations from 0.39 to 50 μM or from 2.1 to 180 μM for 24 h. After that, resazurin (Sigma, St. Louis, MO, USA) was added at a final concentration of 70 µM and the plates were incubated overnight (16–18 h). Untreated cells and cells treated by non-ionogenic detergent Triton X-100 were used as negative and positive controls, respectively. […] The cell viability was estimated by resorufin fluorescence registered at […] via the following equation: cell viability (%) = (Fsample/Fcontrol) × 100%. Experiment was carried out twice in duplicate.

[3] = tested on: human smooth muscles (CASMC); parameters: method as in PMID 28179997; conditions: read-out: IC50, MTT cell viability assay; cited from earlier work
[4] = tested on: Caco-2 cells in a monolayer; experiment: Cytotoxicity assay, resazurin method, Caco-2 cells in a monolayer; type: cell-based, human; conditions: 24 h; for Cell viability: Caco-2 monolayer
Protocol: as §1

[5] = tested on: human dermal fibroblast cells (AHDF); parameters: method as in PMID 28179997; conditions: read-out: IC50, MTT cell viability assay; cited from earlier work

NaD1: Recombinant tobacco floral defensin NaD1 (UNIPROT Q8GTM0), obtained by heterologous expression in E. coli; FITC-labeled in the permeability assay (RECKTESNTFPGICITKPPCRKACISEKFTDGHCSKILRRCLCTKPC; cysteine pairing not given here; also: FITC label; UniProt Q8GTM0 26-72, looked up)
pIC50 [1]: ~5.00 | CC50 ([2]; calculated): 61.8 µM | Cell viability ([2]; peptide 53.3 µM): approximately 62% | Cell viability ([2]; peptide 180 μM): 8% | pIC50 [3]: ~5.00 | Cell viability ([4]; peptide 25 µM): approximately 85% | Cell viability ([4]; peptide 50 µM): ~70% | Cytotoxic effect on Caco-2 cells in a monolayer ([4]; peptide 12.5 µM): no effects | pIC50 [5]: ~5.00
